Assay: yeast display, Sf9 membrane polyspecificity reagent, FACS + sequencing; frameworks hold sequencing errors
Summary of the method: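 Nanobodies came from a synthetic yeast display library in Saccharomyces cerevisiae BJ5465, induced with galactose for 36–48 hours and stained for 1 hour at 4 °C with 10% biotinylated, detergent-solubilized Sf9 membrane reagent. Cells were enriched on streptavidin microbeads and then FACS-sorted, with low and high (top ~1%) gates set on anti-HA fluorescence for expression and streptavidin fluorescence for reagent binding. Each polyreactivity label reflects the gate a clone came from. Genes were amplified by colony PCR, sequenced by MiSeq 2 × 250 and filtered by CDR length.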

Sequence	polyreactivity (PSR sort gate)
QVQLVESGGGLVQAGGSLRLSCAASGITFPSYTMGWYRQAPGKERELVATIRNGGSTYYADSVKGRFTISRDNAKNTVYLQMNSLKPEDPAVYYCAAVPLWDYKFFYYLLYDYWGQGTQVTVSS	low polyreactivity
QVQLVESGGGLVKAGGSLRLSCAASGRIFVGYGMGWYRQAPGKERELVAAITSSGGSTYYADSVKGRFTISRDNAKNTVYLQMNILKPEDTAVYYCAAERGYHVGGSGLYDYWGQGTQVNVSS	low polyreactivity
QVQLVESGGGLVQAGGSLRLSCAASGSTFTLYAMGWYRQAPGKERELVAAISGIGDSTYYADSVKGRFTISRDNAKNTVYLQMNSLKPEDTAVYYCAADGEYRYDWEYESWGQGTKVTVSS	low polyreactivity
QVQLVESGGGLVQAGGSLRLSCAASGGTFYVNAMGWYRQAPGKERELVADISYSGGRTYYADSVKGRFTISRDNAKKTVYLQMNSLKPEDTAVYYCAADPYWVGYGSPFGYWGQGTQVTVSS	high polyreactivity
QVQLVESGGGLVQAGGSLRLSCAASGSIFSKNAIGWYRQAPGKERELVATISRSGGSTYYADSVKGRFTISRDNAKNTVYLQMNSLKPDDSAVYYCNRDTRYYWKRYGYWGQGTQVTVSS	high polyreactivity
QVQLVESGGGLVKAGGSLSLICAASGFTFGVYAMGRYRQAPGKERELVAAIRRTGGSTYYADSVKGRFTISRDNAKNTVYLQMNSLKPEDTAVYYCAAHAISYQSRYRYRYGSVDYWGQGTQVTVSS	high polyreactivity
QVQLVESGGGLVQAGGSLRLSCAASGRTFGQYVMGWYREAPGKERELVAAIRSGGSTYYADSVKGRFTISRDNAKNTVYLQMNSLKPEDTAVYYCANETYYGTDNFGQVGGEMDYWGQGTQVTVSS	low polyreactivity
QVQLVESGGGLVQAGGSLRLSCAASGRTFYRNDMGWYRQEPGKEREFVAAITSSGGTTYADSVKGRFTISRDNAKNTVYLQMNSLKPEDTAVYYCNTVLYPYWQWDYEFDYWGQGTQVTVSS	low polyreactivity
QVMLVESGGGLVQAGGSLRLSCAASGSIFKSNAMGWYRQAPGKERELVAAITRSGGSTYYADSVKGRFTISRDNAKYTVYLQMNSLKPEDTAVYYCARRPGKGNNYWGKGTQVTVSS	high polyreactivity
QDQLVESGGLLVQAGGSLRLSCAAYGSTIGVYAMGWYRQAPRKERELVAAISSSTGSTYYADSVKGRFTISRDNAKNTVYLQMIRQKPEDTAVFYCAAAGYGKVRGDYWGQGTQVSVSS	low polyreactivity
QVQVVESGGGLVQAGGSLRLSCAASGSIFFFYAMGWYRQAPGQERELVAAITGSGGSTYYADSVKGRFTISRDKAKNTVYLQMNSLKPEDPAVYYCAVRTSRQVYSYGGYESWGHGTQVTVSS	low polyreactivity
QVQLVESGGGLVHAGGSLRLSCAASGRTFSYYTMAWYRQAPGKERELVAAISGRGGSTYYADSVKGRFTISRDNAKNTVYLQMNSLKPEDTAVYYCNVVKQYLGGVPDFDYWGQGTQVTVSS	low polyreactivity
QVQHVESGGGLVQAGGSLRLSCAASGFIFTSYAMGWYRQAPGKERELVAVISASDGSTYYADSVKGRFTISRDNAKNTVYLQMNILKPEDTAVYYCNATEYLGGGGIVHVEFGYWGQGTQVTVSS	low polyreactivity
QVQLVESGGGLDQAGGSLRLSCAASGLTFGTYPMGWYRQAPGKETELVAAIRSGGSTNYADSVKGRFTISRDNAKNTVYLQMNSLKPEDTAVYYCNSVTVYYRKYEFWGQGTQVTVSS	high polyreactivity
QVQLVDSVGGLVQAGGSLRLSCAASGLTFLGNAMGWYRQATGKEREFVAGIDRSSVSTYADSVKGRFTISRDNAKNTVYLQMNSLKPEDTEVYYCAVVEYGIWVGWVPYATFGMNYWGQGTQVTVSS	high polyreactivity
QVQLVESGGGLVQAGRSLRLSCAASGSIFGWNAMGWYRQAPGKERELVAAINGGDRTNYADSVKGRFTISRDNAKNTVYLQMNSLNTEDTAVYYCGKDFYPTRPGWGGGEYNYWGQGTQVTVSS	low polyreactivity
QVQIVESGGGLVQAGGSLRLTCAASGSTFYDYAMGWYRQAPGKERDLVAAITSADSTNYADSVKGRFTISRDNAKNTVYLQMNSLKPEDTAVYYCGQGTQVTVSS	low polyreactivity
QVQLVESGGGLVQAGGSLRLSCAASGSIFKYYAMGWYRQAPGKERELVAAISSGGITNYADSVKGRFTISRDNAKNTVYLQMNSLKPEDTAVYYCAARDYVRFGLYDYDYWGQGTQVTVSS	low polyreactivity
QVQLQESGGGLVQAGGSLRLSCAASGYISHADEMGWYRKAPGKEHELVASISNGGSTNYADSVKGRFTISRDNAKNTVYLQMNSLKSEDTAVYYCAAWTGQVDIHYYWGMGTQVTVSS	low polyreactivity
QVQLVESGGGLVQAGGSLRLSCAASGRIFQNNAMGWYRQAPGKERELVAAINIIDGVTYYADSVKGRFTISRDNAKNTVYLQMNSLKPEDTAVYYCNAVRRAHHRKYNYWGQGSQVTVSS	low polyreactivity
QVQLVESGGGLVQAGGSLRLSCAASGITFDSYAMGWYRQAPGKEREFVAAISRSGGSTYYADSVKGRFTISRDNAKNTVYLQMNSLKPEDTAVYYCAVSLGRGSSWKLGYWGQGTQVTVSS	high polyreactivity
QVQLVESGGGLVQAGGSLRLSCASSGFIFPLYAMGWYRKAPGKERELVAAITWRGDTTSYADSVKGRFTISRDNAKNTVYLLMIRLKPEDNAVYYCNARGYFGWYAMDYWGQGTQVTVSS	high polyreactivity

Sequence	polyreactivity (PSR sort gate)
QVQLVESGGGLVQAGGSLRLSCAASGFIFQTNVMGWYRQAPGKERELVAAISSGDSTYYADSVKGRFTISRDNAKNTVYLQMNSLKPEDTAVYYCAADSIRTLLTGNTVYIWYGYWGQGTQVTVSS	low polyreactivity
QVQLVESVGGLVQAGGSLRISCAASGSIFAVYAMGWYRQAPGKESELVAAITSSGGRTYYADSVKGRFTISRDNAKNTVYFQMNSLKPEDTAVYYSATRGDTRWGLDYWGQATQVTVSS	high polyreactivity
QVQLVESGGCLDQAGGSLRLSSAASGRIFFGYAMGWYRQAPGKEREFVAAISSVGSTNYADSVKGRFTISRDNAKNTVYLQMNSLKPEDTAVYYCAAAPRSGGKYGSDGGDYWGQGTQVTVSS	low polyreactivity
QVQLVESGGGLDQAGGSLRLSCAASGSIIGIYAMGWYRQAPGKERELVAAISWSGGSTYYADSVKGRFTISRDNAKNTVYLQMNSLKPEDTAVYYCAARGHYQYYWGQGTQVTVSS	low polyreactivity
QVQHVESGGGLVQAGRSLRLICAASGSTFLEYAMGWYRQAPGKERELVASISWSGGSTNYADSVKGRFTFSRDNAKNTVYLQMNSLKPEDTAVFYCNARGWSVVSSRYGYWGQGTQVTVSS	low polyreactivity
QVQLVESGGGLVQAGGRLPISCAASGLTFTSNAMGGYIQAPGKERELVASITWYGGSTSYADSVKGRFTISRDYAKNTVDFQMNSLKPEDTAVSYCAADAWRSYGYRAYYYWGQGTQVTVSS	high polyreactivity
QVQLVESGGGLVQAGGSLRLSCAASGRISNKYAMGSYRQAPGKERELVAAISYSGGTTYYADSVKGRFTISRDNAKNTVYLQMNSLKPEDTAVYYCARVWSKGYGYYWGYYWGQGSQVTVSS	low polyreactivity
QVQLVESAAGLVQAGGSLRLSCAASGLNFASYGMGGYRQAPGKERELVAAISSSVGNTYYADSVKGRFTISRDYAKNTVYLQMNSLNPEDTAVYYCAAAKRSGYTGFKYYYWGQGTQVTVSS	high polyreactivity
QVQLVESGGGLVQAGGSLRLSCAASGFTFYYYAMGWYRQAPGKERELVAGINSDGNTYYADSVKGRFTISRDNAKNNVYLQMNSLKPEDTAVYYCAASKLWPKNFVRHDYWGQGTQVTVSS	low polyreactivity
HVQLVESGGGLVQAGGSLRLSCAASGRIFRINVMGWCRQAPGKERELVAAISGRGGSTYYADSVKGRFTISRDNAQNTDYLQMNRLKPEDTAVYYFAARSPYRYYYWGQGTQVTVSS	high polyreactivity
QVQLVESAGGLVPAGGSLRLSCAASGSIIITKAMGWYRQAPGKERELVAAISWTDDITYYADSVKGRFTISRDNAKNTVYLQMNSLKPEDTAVYYCAAEETSYAYDYWGQGTQVTVSS	low polyreactivity
QVQLVESGGGLVQAGGSLRLSCAASGIISYRYGMGWYRQAPGKEGELVAAISWSGGSTYYADSVKGRFTISRDNAKNTVYLQMNSRKPEDTAVYYCAAYWRQAGVFKIYDYWGQGTQVTVSS	high polyreactivity
QVQLVESGGGIVQAGCSLRLSCAASGSIFSHNAKVGYRQAPGKERELVAAITKGGGRTYYADSVKGRFTISRDNAKNTVYLQMNSLKPEDNAVYYCATAGAHGRERDYWGQGTQVTVSS	high polyreactivity
QVQLVESGGGLVQAGGSLRLSCAASGHIFFYYTMGWYRQAPGKERELVAGITIGGSTNYADSVKGRFTISRDNAKNTVYLQMNSLKPEDTAVYYCNVVKYVYIYTYWEYYYWGQGTQVTVSS	low polyreactivity
QVQLVESGGGLVQAGGSLRLSCAASGRTFKYYAMGWYRQAPGKERELVAAITTGGSTHYADSVKGRFTISRDNAKNTVYLQMNSLKPEDTAVYYCAAGPFARYDYWGQGTEVTVSS	low polyreactivity
QVQLVESGGGLVQAGGSLRLSCAASGSTFDQNGMGWYRQAPGKERELVATISTSAGTYYADSVKGRFTISRDNAKNTVYLQMNSLKPEDTAVYYCNADLGGQYKEFDYWGQGTQVTVSS	low polyreactivity
QVQLVESGGGLVQAGGSLRLSCAASGRISYGNGMGWYIQAPGKERELVAAISWSTTRTYYADSVKGRFTISRDYAKNTVYLQMNSLKPEDTAVYYCNAAGRPYDFSGGRTMEYWGQGTQVTVSS	high polyreactivity
QVQLVESGGGLVQAGGSLRLSCAASGSIFSYNAMGWYRQATGKERELVARITRGGDGTYYADSVKGRFTISRDNAKNTVYLQMNSLKPEDTAVYYCAATPYWYHLRVEGGYWGQGTQVTVSS	low polyreactivity
QVQLVESGGGLVQAGGSLRLSCAASGLTFYYYAMGWYRQAPGKERELVAAISATGGRTYYADSVKGRFTISRDNAKNTVYLQMNSLKPEDTAVYYCAADTPYLRRRLGMDYWGQGTQVTVSS	high polyreactivity
QVQLVESGGGLVQAGGSLRLSCAASGFIFWTYAMGWYRQAPGKERELVAAITGGGGTTYYADSVKGRFTISRDNAKNTVYLQMNSLKPEDTAVYYCAAKQYRSRSGGYWGQGTQVTVSS	high polyreactivity
QVQLVESGGGLVQAGGSLRLSSAASGSTFDDYVMGWYRQAPGKERELVAGINSRGTSTDYADSVKGRFTISRDNAKNTVYLQMNSLKPEDTAVYYCNAESPSGRLFDDAYENDYWGQGTQVTVSS	low polyreactivity
